Data as given in patent publication US12611439B2, “Ionic self-assembling peptides” (3-D MATRIX, LTD., priority 2018, dated 2026).
“Also recorded” adds a separate entry of the source. Peptide text beside a SMILES is read from it.

Legend:
pig stomach submucosa = assay: Submucosal injection in in vivo porcine model, stomach; conditions: for Appearance of stomach mucosa / submucosal elevation after injection / submucosal elevation over time compared with saline and MucoUp: pH 7.5; for Appearance of stomach mucosa: 2 mL injected; for submucosal elevation after injection / submucosal elevation over time compared with saline and MucoUp: 2 mL of 0.1% (w/v) peptide, 0.9% NaCl, pig stomach
Procedure: An in vivo porcine animal model was used to perform endoscopic mucosal and submucosal dissections as described in Uraoka et al. (2009) Drug Des. Devel. Ther. 2:131-8, incorporated herein by reference. Briefly, 2 mL of select peptide formulations were injected in between the […] in stomach of a pig and the submucosa was dissected using electro-knife. The gross appearance of the injection site and of dissected submucosal tissues at the injection sites were analyzed. […] Therefore, an in vivo porcine model system was used to assess the ability of these compositions to induce submucosal elevation upon injection into gastrointestinal submucosa, and the degree of tissue damage. In this model, submucosal injections with liquid compositions were performed and the morphology of the site of injection analyzed. Submucosal injection with aqueous solutions is used during the excision of lesions from the gastrointestinal tract in order to facilitate removal of the lesion by providing a safety cushion during resection (see, e.g., Kim et al. (2013) World J. Gastroenterol. 19(20): 3069-76, incorporated herein by reference). Here, aqueous pharmaceutical compositions comprising three exemplary self-assembling peptides formulated at pH 7.5: KLNL12 (SEQ ID NO:21), NLKL12 (SEQ ID NO:23) or KIQI13 (SEQ ID NO:29), were compared to an aqueous pharmaceutical composition comprising the previously described RADA16 self-assembling peptide (formulated at pH 2.5), a 0.4% solution of sodium hyaluronate (MucoUp®, Boston Scientific Japan K.K., Tokyo, Japan), and saline, pH 7.5.

porcine esophagus mucosa = assay: Submucosal injection in in vivo porcine esophagus
Procedure: In another embodiment, mucosal aggregation visualized as white precipitate near the injection site was evaluated in an in vivo porcine esophagus.

[1] = Frequency sweep test (storage modulus) before and after exposure to DMEM; assay type: physicochemical; conditions: pH 7.5; for increase of mechanical strength after exposure to DMEM: 0.15% (w/v); for rheological properties (mechanical strength) before and after exposure to DMEM: 1% (w/v) peptide
Procedure: Peptides formulated as aqueous solutions were placed between the plates of a rheometer (DHR-1, TA Instruments, 20 mm plates at a measuring geometry of 500 μm or 40 mm cone and plate at a measuring geometry of 2.0° of cone angle) and frequency stress sweep tests were performed at 0.1 Hz to 10 Hz of frequency with 0.1% of strain; measurements were performed after 2 minutes of relaxation time at 37° C. To do frequency sweep tests after exposure to Dulbecco's Modified Eagle Medium (DMEM), 10 mL of DMEM was added in chamber surrounding the plates, the sample in plates was submerged into the DMEM and the frequency test was performed as described after 20 minutes.
Rheological properties of aqueous pharmaceutical compositions comprising the exemplary self-assembling peptides KLNL12 (SEQ ID NO:21), KIQI13 (SEQ ID NO:29), or NLEL12 (SEQ ID NO:33) were determined by performing a frequency sweep test over storage modulus.
In some embodiments, peptides formulated as aqueous solutions, volume 700 μl, were placed between the plates of a rheometer (DHR-1, TA Instruments, 40 mm cone and plate at a measuring geometry of 2.0° of cone angle) and frequency sweep tests were performed at 0.1 Hz to 10 Hz of frequency with 0.1% of strain; measurements were performed after 2 minutes of relaxation time at 37° C. In some embodiments, frequency sweep tests were performed after exposure to Dulbecco's Modified Eagle Medium (DMEM), where 10 mL of DMEM was added in chamber surrounding the plates, the sample in plates was submerged into the DMEM and the frequency test was performed as described after 20 minutes.

[2] = Appearance (solubility) of aqueous compositions at pH 2.5 and pH 7.5; assay type: physicochemical
Procedure: To determine the solubility of exemplary self-assembling peptides in aqueous pharmaceutical compositions formulated at acidic and neutral pH, the appearance of the pharmaceutical compositions was assessed. Homogenous and transparent appearance reflects sufficient solubility of the peptides in solution and minimal hydrogel formation. […] The appearance of exemplary self-assembling peptides at pH 2.5 and pH 7.5 is shown below in Table 6 and FIG. 20.

[3] = Net charge of self-assembling peptides in solution; assay type: physicochemical; conditions: for Net charge at pH 7.5: in solution at pH 7.5
Source text: Several exemplary self-assembling peptides described herein (Table 5; SEQ ID NO:21-40) were designed to have a net charge, positive or negative, when formulated at pH 7.5. In contrast, previously-described self-assembling peptides have a net zero charge at the same pH.

[4] = Viscosity determination at increasing shear rate (shear thinning); assay type: physicochemical; conditions: 1% (w/v) peptide, pH 7.5
Procedure: Peptides formulated as aqueous solutions (200 μL), were placed between the plates of a rheometer (DHR-1, TA Instruments, 20 mm plates at a measuring geometry of 500 μm) and the viscosity was measured from 0.001 s^−1 to 100 s^−1 shear rate. Thixotropic Measurements
In some clinical applications, administration of pharmaceutical compositions comprising self-assembling peptides requires exposing the compositions to pressure and/or shear thinning (e.g., during injection through a syringe needle or transferred via a pump-based system). […] To determine the shear thinning properties of pharmaceutical compositions of the self-assembling peptides formulated at pH 7.5, formulations comprising varying ionic strengths were prepared using different concentrations of sodium chloride, and viscosity measured at increasing shear rates. Thixotropic properties of formulations were also determined as well as the storage modulus over time at specific frequencies and pressure.
FIGS. 6-8 show the experimentally determined viscosity of aqueous pharmaceutical compositions comprising either 1% (w/v) KLNL12 (SEQ ID NO:21), 1% (w/v) IQIK13 (SEQ ID NO:28), or 1% (w/v) NLEL12 (SEQ ID NO:33), at pH 7.5. FIGS. 9 and 10 show the experimentally determined viscosity of aqueous pharmaceutical compositions comprising either 1% KLNL12 (SEQ ID NO:21) or 1% NLEL12 (SEQ ID NO:33), and 0.9% NaCl (to mimic physiological conditions) at pH 7.5. […] That is, decreased viscosity with increasing sheer rate. This property may advantageously facilitate application and use of the pharmaceutical compositions (e.g., due to decreased viscosity while pumping) while maintaining a desirable viscosity at a site of application (e.g., where no sheer force is being applied).

[5] = porcine esophagus, compositions of Table 9

CC[C@H](C)[C@H](NC(=O)[C@H](CCC(N)=O)NC(=O)[C@@H](NC(=O)[C@H](CCCCN)NC(=O)[C@@H](NC(=O)[C@H](CCC(N)=O)NC(=O)[C@@H](NC(=O)[C@H](CCCCN)NC(=O)[C@@H](NC(=O)[C@H](CCC(N)=O)NC(=O)[C@@H](NC(=O)[C@H](CCCCN)NC(C)=O)[C@@H](C)CC)[C@@H](C)CC)[C@@H](C)CC)[C@@H](C)CC)[C@@H](C)CC)C(N)=O [KIQI12, Ac-KIQIKIQIKIQI-NH2] (Ac-KIQIKIQIKIQI-NH2)
Appearance of stomach mucosa (pig stomach submucosa; 0.1% (w/v) peptide with NaCl 0.9%): do not appear to alter submucosal tissue morphology; also recorded: Clear/transparent
Appearance of stomach mucosa (porcine esophagus mucosa; porcine esophagus, 0.1% (w/v) peptide with NaCl 0.9%, pH 7.5): cloudy/aggregation
mucosal aggregation at injection sites (porcine esophagus mucosa; [5]): Mucosal aggregation was observed

CC(=O)N[C@@H](CC(C)C)C(=O)N[C@@H](CCC(=O)O)C(=O)N[C@@H](CC(C)C)C(=O)N[C@@H](CCC(N)=O)C(=O)N[C@@H](CC(C)C)C(=O)N[C@@H](CCC(=O)O)C(=O)N[C@@H](CC(C)C)C(=O)N[C@@H](CCC(N)=O)C(=O)N[C@@H](CC(C)C)C(=O)N[C@@H](CCC(=O)O)C(=O)N[C@@H](CC(C)C)C(=O)N[C@@H](CCC(N)=O)C(N)=O [LELQ12, Ac-LELQLELQLELQ-NH2] (Ac-LELQLELQLELQ-NH2)
mucosal aggregation at injection sites (porcine esophagus mucosa; pig, in vivo): mucosal aggregation was not observed
Appearance of stomach mucosa (porcine esophagus mucosa; pig, in vivo, pH 7.5): clear/transparent

CC(=O)N[C@@H](CCC(N)=O)C(=O)N[C@@H](CC(C)C)C(=O)N[C@@H](CCC(=O)O)C(=O)N[C@@H](CC(C)C)C(=O)N[C@@H](CCC(N)=O)C(=O)N[C@@H](CC(C)C)C(=O)N[C@@H](CCC(=O)O)C(=O)N[C@@H](CC(C)C)C(=O)N[C@@H](CCC(N)=O)C(=O)N[C@@H](CC(C)C)C(=O)N[C@@H](CCC(=O)O)C(=O)N[C@@H](CC(C)C)C(N)=O [QLEL12, Ac-QLELQLELQLEL-NH2] (Ac-QLELQLELQLEL-NH2)
Appearance of stomach mucosa (pig stomach submucosa; 0.2% (w/v) peptide with NaCl 0.9%): no mucosal aggregation was observed; also recorded: do not appear to alter submucosal tissue morphology; also recorded: clear/transparent
rheological property versus peptide concentration ([1]; 0.1% to 0.3% (w/v), 0.9% NaCl): linear relationship
increase of mechanical strength after exposure to DMEM ([1]; 0.9% NaCl, frequency 0.1 Hz): 23 fold
increase of mechanical strength after exposure to DMEM ([1]; 0.9% NaCl, frequency 1 Hz): 20 fold
increase of mechanical strength after exposure to DMEM ([1]; 0.9% NaCl, frequency 10 Hz): 9 fold
Appearance of stomach mucosa (porcine esophagus mucosa; porcine esophagus, 0.2% (w/v) peptide with NaCl 0.9%, pH 7.5): clear/transparent
mucosal aggregation at injection sites (porcine esophagus mucosa; [5]): mucosal aggregation was not observed

Ac-IEIKIEIKIEIKI-NH2 [IEIK13]
Appearance at different pH: At pH 7.5 [2]: phase separation and cloudy appearance

Ac-IKIQIKIQIKIQI-NH2 [IKIQ13]
Net charge at pH 7.5 [3]: +3

Ac-INIKINIKINIKI-NH2 [INIK13]
Net charge at pH 7.5 [3]: +3

Ac-IQIKIQIKIQIK-NH2 [IQIK12]
Net charge at pH 7.5 [3]: +3

Ac-IQIKIQIKIQIKI-NH2 [IQIK13]
viscosity in response to increasing shear rate [4]: exhibit sheer thinning
Net charge at pH 7.5 [3]: +3

Ac-KANAKANAKANA-NH2 [KANA12]
Net charge at pH 7.5 [3]: +3

Ac-KIQIKIQIKIQIK-NH2 [KIQI13]
submucosal elevation after injection (pig stomach submucosa): resulted in submucosal elevation
submucosal elevation over time compared with saline and MucoUp (pig stomach submucosa): better submucosal elevation than saline and MucoUp®
Net charge at pH 7.5 [3]: +4
rheological properties (mechanical strength) before and after exposure to DMEM ([1]; 0.9% NaCl): increased after DMEM treatment
rheological properties (mechanical strength) before and after exposure to DMEM [1]: increased after DMEM treatment

Ac-KLDLKLDLKLDL-NH2 [KLDL12, reference compound]
Appearance at different pH: At pH 7.5 [2]: phase separation and cloudy appearance
Net charge at pH 7.5 [3]: 0
Net charge at pH 7.5 ([3]; listed as KLD12): about zero

Ac-KLNLKLNLKLNLK-NH2 [KLNL13]
Net charge at pH 7.5 [3]: +4

Ac-KLNLKLNLKLNLKLNLK-NH2 [KLNL17]
Net charge at pH 7.5 [3]: +5

Ac-KLTLKLTLKLTL-NH2 [KLTL12]
Net charge at pH 7.5 [3]: +3

Ac-KVNVKVNVKVNV-NH2 [KVNV12]
Net charge at pH 7.5 [3]: +3

Ac-LKLNLKLNLKLN-NH2 [LKLN12]
Net charge at pH 7.5 [3]: +3

Ac-LNLKLNLKLNLK-NH2 [LNLK12]
Net charge at pH 7.5 [3]: +3

Ac-NLDLNLDLNLDL-NH2 [NLDL12]
Net charge at pH 7.5 [3]: −3

Ac-NLKLNLKLNLKL-NH2 [NLKL12]
submucosal elevation after injection (pig stomach submucosa): resulted in submucosal elevation
submucosal elevation over time compared with saline and MucoUp (pig stomach submucosa): better submucosal elevation than saline and MucoUp®
Net charge at pH 7.5 [3]: +3

Ac-QIKIQIKIQIKIQ-NH2 [QIKI13]
Net charge at pH 7.5 [3]: +3

Ac-RADARADARADARADA-NH2 [RADA16, reference compound]
Appearance at different pH: At pH 7.5 [2]: precipitates; also recorded: phase separation and cloudy appearance
period after injection until mucosal aggregation (pig stomach submucosa; pig, in vivo, pH 2.5): 10 to 15 min
net charge as a function of pH ([3]; around neutral pH): about 0
mucosal aggregation at injection sites (porcine esophagus mucosa; pig, in vivo): Mucosal aggregation was observed
Appearance of stomach mucosa (porcine esophagus mucosa; pig, in vivo, pH 2.5): cloudy/aggregation

Ac-RANARANARANARANA-NH2 [RANA16]
Net charge at pH 7.5 [3]: +4
